# Measurements as given in patent US12679878B2, “CRF2 receptor agonists and their use in therapy” (SANOFI, priority 2020, dated 2026).
# Starred links: 1 amine or outer side, 2 acyl side, 3 side chain; linkers in the order of their positions; H or OH if unused. Non-standard residues stand in square brackets, D forms with d. Groups on a side chain read outwards from the residue. No end group written: not given here. *: point of attachment. C16 diacid = O=C(O)CCCCCCCCCCCCCCC(=O)*; γGlu = O=C(O)[C@H](CCC(=O)[*:2])N[*:1]; AEEA = NCCOCCOCC(=O)O; Aib = CC(C)(N)C(=O)O
# B1: peptide of SEQ ID NO: 198 (peptide)
# peptide: IVLSLD[dV]PIKLK([AEEA-AEEA-γGlu-C16 diacid])QILLKQERQK[Aib]QREQAEKNKQILAQV-NH2
# modifications: N-terminus assumed
# SMILES: CC[C@H](C)[C@H](N)C(=O)N[C@H](C(=O)N[C@@H](CC(C)C)C(=O)N[C@@H](CO)C(=O)N[C@@H](CC(C)C)C(=O)N[C@@H](CC(=O)O)C(=O)N[C@@H](C(=O)N1CCC[C@H]1C(=O)N[C@H](C(=O)N[C@@H](CCCCN)C(=O)N[C@@H](CC(C)C)C(=O)N[C@@H](CCCCNC(=O)COCCOCCNC(=O)COCCOCCNC(=O)CC[C@H](NC(=O)CCCCCCCCCCCCCCC(=O)O)C(=O)O)C(=O)N[C@@H](CCC(N)=O)C(=O)N[C@H](C(=O)N[C@@H](CC(C)C)C(=O)N[C@@H](CC(C)C)C(=O)N[C@@H](CCCCN)C(=O)N[C@@H](CCC(N)=O)C(=O)N[C@@H](CCC(=O)O)C(=O)N[C@@H](CCCNC(=N)N)C(=O)N[C@@H](CCC(N)=O)C(=O)N[C@@H](CCCCN)C(=O)NC(C)(C)C(=O)N[C@@H](CCC(N)=O)C(=O)N[C@@H](CCCNC(=N)N)C(=O)N[C@@H](CCC(=O)O)C(=O)N[C@@H](CCC(N)=O)C(=O)N[C@@H](C)C(=O)N[C@@H](CCC(=O)O)C(=O)N[C@@H](CCCCN)C(=O)N[C@@H](CC(N)=O)C(=O)N[C@@H](CCCCN)C(=O)N[C@@H](CCC(N)=O)C(=O)N[C@H](C(=O)N[C@@H](CC(C)C)C(=O)N[C@@H](C)C(=O)N[C@@H](CCC(N)=O)C(=O)N[C@H](C(N)=O)C(C)C)[C@@H](C)CC)[C@@H](C)CC)[C@@H](C)CC)C(C)C)C(C)C
# B2: peptide of SEQ ID NO: 200 (peptide)
# peptide: IVLSLD[dV]PIKLK([AEEA-AEEA-γGlu-C16 diacid])QILLKQERQKK[Aib]RQKAEKNKQILAQV-NH2
# modifications: N-terminus assumed
# SMILES: CC[C@H](C)[C@H](N)C(=O)N[C@H](C(=O)N[C@@H](CC(C)C)C(=O)N[C@@H](CO)C(=O)N[C@@H](CC(C)C)C(=O)N[C@@H](CC(=O)O)C(=O)N[C@@H](C(=O)N1CCC[C@H]1C(=O)N[C@H](C(=O)N[C@@H](CCCCN)C(=O)N[C@@H](CC(C)C)C(=O)N[C@@H](CCCCNC(=O)COCCOCCNC(=O)COCCOCCNC(=O)CC[C@H](NC(=O)CCCCCCCCCCCCCCC(=O)O)C(=O)O)C(=O)N[C@@H](CCC(N)=O)C(=O)N[C@H](C(=O)N[C@@H](CC(C)C)C(=O)N[C@@H](CC(C)C)C(=O)N[C@@H](CCCCN)C(=O)N[C@@H](CCC(N)=O)C(=O)N[C@@H](CCC(=O)O)C(=O)N[C@@H](CCCNC(=N)N)C(=O)N[C@@H](CCC(N)=O)C(=O)N[C@@H](CCCCN)C(=O)N[C@@H](CCCCN)C(=O)NC(C)(C)C(=O)N[C@@H](CCCNC(=N)N)C(=O)N[C@@H](CCC(N)=O)C(=O)N[C@@H](CCCCN)C(=O)N[C@@H](C)C(=O)N[C@@H](CCC(=O)O)C(=O)N[C@@H](CCCCN)C(=O)N[C@@H](CC(N)=O)C(=O)N[C@@H](CCCCN)C(=O)N[C@@H](CCC(N)=O)C(=O)N[C@H](C(=O)N[C@@H](CC(C)C)C(=O)N[C@@H](C)C(=O)N[C@@H](CCC(N)=O)C(=O)N[C@H](C(N)=O)C(C)C)[C@@H](C)CC)[C@@H](C)CC)[C@@H](C)CC)C(C)C)C(C)C
# B3: peptide of SEQ ID NO: 201 (peptide)
# peptide: IVLSLD[dV]PIKLK([AEEA-AEEA-γGlu-γGlu-C16 diacid])QILLKQERQKK[Aib]RQKAEKNKQILAQV-NH2
# modifications: N-terminus assumed
# SMILES: CC[C@H](C)[C@H](N)C(=O)N[C@H](C(=O)N[C@@H](CC(C)C)C(=O)N[C@@H](CO)C(=O)N[C@@H](CC(C)C)C(=O)N[C@@H](CC(=O)O)C(=O)N[C@@H](C(=O)N1CCC[C@H]1C(=O)N[C@H](C(=O)N[C@@H](CCCCN)C(=O)N[C@@H](CC(C)C)C(=O)N[C@@H](CCCCNC(=O)COCCOCCNC(=O)COCCOCCNC(=O)CC[C@H](NC(=O)CC[C@H](NC(=O)CCCCCCCCCCCCCCC(=O)O)C(=O)O)C(=O)O)C(=O)N[C@@H](CCC(N)=O)C(=O)N[C@H](C(=O)N[C@@H](CC(C)C)C(=O)N[C@@H](CC(C)C)C(=O)N[C@@H](CCCCN)C(=O)N[C@@H](CCC(N)=O)C(=O)N[C@@H](CCC(=O)O)C(=O)N[C@@H](CCCNC(=N)N)C(=O)N[C@@H](CCC(N)=O)C(=O)N[C@@H](CCCCN)C(=O)N[C@@H](CCCCN)C(=O)NC(C)(C)C(=O)N[C@@H](CCCNC(=N)N)C(=O)N[C@@H](CCC(N)=O)C(=O)N[C@@H](CCCCN)C(=O)N[C@@H](C)C(=O)N[C@@H](CCC(=O)O)C(=O)N[C@@H](CCCCN)C(=O)N[C@@H](CC(N)=O)C(=O)N[C@@H](CCCCN)C(=O)N[C@@H](CCC(N)=O)C(=O)N[C@H](C(=O)N[C@@H](CC(C)C)C(=O)N[C@@H](C)C(=O)N[C@@H](CCC(N)=O)C(=O)N[C@H](C(N)=O)C(C)C)[C@@H](C)CC)[C@@H](C)CC)[C@@H](C)CC)C(C)C)C(C)C
# B4: peptide of SEQ ID NO: 199 (peptide)
# peptide: IVLSLD[dV]PIKLK([AEEA-AEEA-γGlu-γGlu-C16 diacid])QILLKQERQK[Aib]QREQAEKNKQILAQV-NH2
# modifications: N-terminus assumed
# SMILES: CC[C@H](C)[C@H](N)C(=O)N[C@H](C(=O)N[C@@H](CC(C)C)C(=O)N[C@@H](CO)C(=O)N[C@@H](CC(C)C)C(=O)N[C@@H](CC(=O)O)C(=O)N[C@@H](C(=O)N1CCC[C@H]1C(=O)N[C@H](C(=O)N[C@@H](CCCCN)C(=O)N[C@@H](CC(C)C)C(=O)N[C@@H](CCCCNC(=O)COCCOCCNC(=O)COCCOCCNC(=O)CC[C@H](NC(=O)CC[C@H](NC(=O)CCCCCCCCCCCCCCC(=O)O)C(=O)O)C(=O)O)C(=O)N[C@@H](CCC(N)=O)C(=O)N[C@H](C(=O)N[C@@H](CC(C)C)C(=O)N[C@@H](CC(C)C)C(=O)N[C@@H](CCCCN)C(=O)N[C@@H](CCC(N)=O)C(=O)N[C@@H](CCC(=O)O)C(=O)N[C@@H](CCCNC(=N)N)C(=O)N[C@@H](CCC(N)=O)C(=O)N[C@@H](CCCCN)C(=O)NC(C)(C)C(=O)N[C@@H](CCC(N)=O)C(=O)N[C@@H](CCCNC(=N)N)C(=O)N[C@@H](CCC(=O)O)C(=O)N[C@@H](CCC(N)=O)C(=O)N[C@@H](C)C(=O)N[C@@H](CCC(=O)O)C(=O)N[C@@H](CCCCN)C(=O)N[C@@H](CC(N)=O)C(=O)N[C@@H](CCCCN)C(=O)N[C@@H](CCC(N)=O)C(=O)N[C@H](C(=O)N[C@@H](CC(C)C)C(=O)N[C@@H](C)C(=O)N[C@@H](CCC(N)=O)C(=O)N[C@H](C(N)=O)C(C)C)[C@@H](C)CC)[C@@H](C)CC)[C@@H](C)CC)C(C)C)C(C)C
# B5: peptide of SEQ ID NO: 194 (peptide)
# peptide: IVLSLD[dV]PIGLK([γGlu-C16 diacid])QILLKQERQKK[Aib]REQAETNKQILAQV-NH2
# modifications: N-terminus assumed
# SMILES: CC[C@H](C)[C@H](N)C(=O)N[C@H](C(=O)N[C@@H](CC(C)C)C(=O)N[C@@H](CO)C(=O)N[C@@H](CC(C)C)C(=O)N[C@@H](CC(=O)O)C(=O)N[C@@H](C(=O)N1CCC[C@H]1C(=O)N[C@H](C(=O)NCC(=O)N[C@@H](CC(C)C)C(=O)N[C@@H](CCCCNC(=O)CC[C@H](NC(=O)CCCCCCCCCCCCCCC(=O)O)C(=O)O)C(=O)N[C@@H](CCC(N)=O)C(=O)N[C@H](C(=O)N[C@@H](CC(C)C)C(=O)N[C@@H](CC(C)C)C(=O)N[C@@H](CCCCN)C(=O)N[C@@H](CCC(N)=O)C(=O)N[C@@H](CCC(=O)O)C(=O)N[C@@H](CCCNC(=N)N)C(=O)N[C@@H](CCC(N)=O)C(=O)N[C@@H](CCCCN)C(=O)N[C@@H](CCCCN)C(=O)NC(C)(C)C(=O)N[C@@H](CCCNC(=N)N)C(=O)N[C@@H](CCC(=O)O)C(=O)N[C@@H](CCC(N)=O)C(=O)N[C@@H](C)C(=O)N[C@@H](CCC(=O)O)C(=O)N[C@H](C(=O)N[C@@H](CC(N)=O)C(=O)N[C@@H](CCCCN)C(=O)N[C@@H](CCC(N)=O)C(=O)N[C@H](C(=O)N[C@@H](CC(C)C)C(=O)N[C@@H](C)C(=O)N[C@@H](CCC(N)=O)C(=O)N[C@H](C(N)=O)C(C)C)[C@@H](C)CC)[C@@H](C)O)[C@@H](C)CC)[C@@H](C)CC)C(C)C)C(C)C
# Experiments:
# [1] = target: T1, CRF1R receptor (anti-target) (UniProt P34998 24-415, limits assumed); assay: cell-based or functional assay
# T1 sequence (looked up): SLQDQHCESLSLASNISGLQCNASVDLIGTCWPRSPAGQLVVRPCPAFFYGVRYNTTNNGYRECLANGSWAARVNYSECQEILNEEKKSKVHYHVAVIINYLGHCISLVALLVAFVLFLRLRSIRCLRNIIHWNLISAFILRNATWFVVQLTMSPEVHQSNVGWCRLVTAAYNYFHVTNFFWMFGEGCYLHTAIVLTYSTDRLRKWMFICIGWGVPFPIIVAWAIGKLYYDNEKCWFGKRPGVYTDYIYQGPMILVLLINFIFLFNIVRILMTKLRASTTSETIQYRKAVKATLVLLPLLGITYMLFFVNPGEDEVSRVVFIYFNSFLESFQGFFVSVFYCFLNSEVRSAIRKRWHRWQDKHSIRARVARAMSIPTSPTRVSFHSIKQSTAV
# [2] = target: human corticotropin-releasing factor 2α (CRF2α receptor) (human), Q13324; assay: cell-based or functional assay
# human corticotropin-releasing factor 2α (CRF2α receptor) (human), Q13324, sequence (Q13324 20-411): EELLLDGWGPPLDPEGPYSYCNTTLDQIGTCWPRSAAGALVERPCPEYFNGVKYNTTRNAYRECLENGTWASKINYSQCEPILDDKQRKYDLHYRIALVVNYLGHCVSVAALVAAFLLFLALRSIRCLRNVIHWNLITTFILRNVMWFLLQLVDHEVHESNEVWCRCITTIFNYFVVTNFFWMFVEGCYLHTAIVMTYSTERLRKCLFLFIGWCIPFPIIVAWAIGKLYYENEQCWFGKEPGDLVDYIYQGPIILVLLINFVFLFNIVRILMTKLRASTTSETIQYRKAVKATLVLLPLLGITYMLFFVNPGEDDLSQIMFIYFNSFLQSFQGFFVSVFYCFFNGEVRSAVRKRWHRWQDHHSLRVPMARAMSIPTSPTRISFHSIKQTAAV
Binder,"EC50 [nM] 0% HSA (cAMP, HTRF) [1] [nM]",Emax (%) (100% = Sauvagine at 100 nM) [1],"EC50 [nM], 0% HSA (cAMP, HTRF) [2] [nM]"
B1,> 100,1.4,0.49
B2,> 100,1.9,8.7
B3,> 100,-2.8,4.66
B4,> 100,-2.9,1.39
B5,> 100,21.6,0.11
